Experimental findings from PMC3527935 are described below.

One may read the Kd as the constant that tells how readily two partners part at equilibrium. A higher Kd goes with lower affinity. As a reminder, the koff is the first-order rate constant of dissociation. Low readings indicate a long-lived complex, high ones a short-lived complex. Usually kon stands for a measure of how fast the partners come together. The low end stands for slower complex formation, the high end for faster complex formation.

Assay [1] has as its target soluble LDL receptor ectodomain (UniProt P01130). In words: ELISA. (An ELISA detects its analyte on a solid surface through an enzyme-linked reagent.)
Assay [2] has the same target. As to the kind of experiment: BLI.

Sequence of soluble LDL receptor ectodomain (P01130 22-788): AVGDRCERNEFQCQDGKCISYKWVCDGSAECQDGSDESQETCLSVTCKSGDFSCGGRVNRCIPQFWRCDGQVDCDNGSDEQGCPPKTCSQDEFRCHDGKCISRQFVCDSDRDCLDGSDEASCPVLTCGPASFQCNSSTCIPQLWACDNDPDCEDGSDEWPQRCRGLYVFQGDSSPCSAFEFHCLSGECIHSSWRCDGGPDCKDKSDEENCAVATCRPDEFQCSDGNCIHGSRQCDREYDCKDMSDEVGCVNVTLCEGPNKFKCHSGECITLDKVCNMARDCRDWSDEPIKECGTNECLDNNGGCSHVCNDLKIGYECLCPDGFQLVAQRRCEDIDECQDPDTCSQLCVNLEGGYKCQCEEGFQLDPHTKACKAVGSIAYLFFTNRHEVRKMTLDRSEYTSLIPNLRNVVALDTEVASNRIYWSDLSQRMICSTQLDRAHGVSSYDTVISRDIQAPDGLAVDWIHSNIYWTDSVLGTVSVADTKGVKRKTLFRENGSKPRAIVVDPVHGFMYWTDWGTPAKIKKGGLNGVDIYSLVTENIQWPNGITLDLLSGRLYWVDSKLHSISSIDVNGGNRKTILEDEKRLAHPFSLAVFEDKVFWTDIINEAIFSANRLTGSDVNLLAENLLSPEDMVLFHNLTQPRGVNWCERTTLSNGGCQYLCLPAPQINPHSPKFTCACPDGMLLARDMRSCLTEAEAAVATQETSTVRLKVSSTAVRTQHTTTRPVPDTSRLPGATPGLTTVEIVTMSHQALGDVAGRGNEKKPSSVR

“purified furin-cleaved PCSK9 (from UniProt Q8NBP7) (natural protein)” had an affinity loss against intact PCSK9 (IC50 intact/IC50 cleaved), fold in assay [1] of 1.1 fold. In addition, in assay [2], the Kd was 0.356 µM, the koff is 0.0138 s⁻¹ and the kon stood at 39000 M⁻¹ s⁻¹.

Substance “purified hepsin-cleaved PCSK9 (from UniProt Q8NBP7) (natural protein)” showed an affinity loss against intact PCSK9 (IC50 intact/IC50 cleaved), fold in assay [1] of 1.4 fold. In assay [2], this substance displayed a dissociation constant Kd of 0.268 µM, a koff of 0.00858 s⁻¹ and a kon of 32000 M⁻¹ s⁻¹.
